According to patent US20170298146A1 (MODIQUEST B V, published 2017):
Non-standard residues stand in square brackets, D forms with d. No end group written: not given here. Cit = NC(=O)NCCC[C@H](N)C(=O)O

How the values were obtained:
[1] = molecular target: T1, human recombinant histone H2B (human); test: ELISA, 0.08 ug/well
T1 construct: Non-deiminated
Method: (§1) CFC-1 and CFC-0 were coated at the same concentration and served as positive and negative controls, respectively, for specific anti-citrulline reactivity and as coating controls. Non-coated wells were used to test for aspecific binding of the antibodies. […] Detection of bound anti-citrulline antibodies was performed by incubating the wells with rabbit-anti-human-HRP (1:2000) for one hour at RT followed by incubation with TMB substrate. The resulting OD (y-axis) is a measure for antibody binding. H1=recombinant histone 1; H1/p2=huPAD2 recombinant histone 1; H1/p4=huPAD4 recombinant histone 1 and so forth (x-axis).

[2] = molecular target: T2, huPAD2 deiminated human recombinant histone H2B (human); test: ELISA, 0.08 ug/well
T2 construct: also called H2B/p2
Method: as §1

[3] = molecular target: T3, human recombinant histone H2A (human); test: ELISA, 0.016 ug/well
T3 construct: Non-deiminated
Method: as §1

[4] = molecular target: T4, huPAD2 deiminated human recombinant histone H2A (human); test: ELISA, 0.016 ug/well
T4 construct: also called H2A/p2
Method: as §1

[5] = molecular target: T5, huPAD4 deiminated human recombinant histone H2A (human); test: ELISA, 0.016 ug/well
T5 construct: also called H2A/p4; huPAD4 deiminated histone 2A
Method: as §1

[6] = molecular target: T1, human recombinant histone H2B; test: ELISA, 0.016 ug/well
Method: as §1

[7] = molecular target: T2, huPAD2 deiminated human recombinant …; test: ELISA, 0.016 ug/well
Method: as §1

[8] = molecular target: T6, huPAD4 deiminated human recombinant histone H2B (human); test: ELISA, 0.016 ug/well
T6 construct: also called H2B/p4
Method: as §1

[9] = molecular target: T7, huPAD2 deiminated human recombinant histone H3 (human); test: ELISA, 0.016 ug/well
T7 construct: also called H3/p2
Method: as §1

[10] = molecular target: T8, huPAD4 deiminated human recombinant histone H3 (human); test: ELISA, 0.016 ug/well
T8 construct: also called H3/p4
Method: as §1

[11] = molecular target: T9, human recombinant histone H4 (human, UniProt P62805 2-103); test: ELISA, 0.016 ug/well
Method: as §1

CFC-1 [12] = molecular target: T10, CFC-1; test: ELISA, 0.016 ug/well
T10 construct: Positive control for anti-citrulline reactivity; also called cfc1 XG
Method: as §1

[13] = molecular target: T4, huPAD2 deiminated human recombinant …; test: ELISA, 0.000128 ug/well
Method: as §1

[14] = molecular target: T1, human recombinant histone H2B; test: ELISA, 0.000128 ug/well
Method: as §1

[15] = molecular target: T2, huPAD2 deiminated human recombinant …; test: ELISA, 0.000128 ug/well
Method: as §1

[16] = molecular target: T6, huPAD4 deiminated human recombinant …; test: ELISA, 0.000128 ug/well
Method: as §1

[17] = molecular target: T7, huPAD2 deiminated human recombinant …; test: ELISA, 0.000128 ug/well
Method: as §1

[18] = molecular target: T8, huPAD4 deiminated human recombinant …; test: ELISA, 0.000128 ug/well
Method: as §1

[19] = molecular target: T9, human recombinant histone H4; test: ELISA, 0.000128 ug/well
Method: as §1

CFC-1 [20] = molecular target: T10, CFC-1; test: peptide ELISA, 0.00064 ug/well
Method: as §1, with “Biotin and citrulline-containing peptides derived from histone 2A were immobilized on NEUTRAVIDIN®-coated 96-well ELISA plates (0.3 μg/well). CFC-1” for “CFC-1”, “controls respectively” for “controls, respectively,”, “binding.” for “binding. H1=recombinant histone 1; H1/p2=huPAD2 recombinant histone 1; H1/p4=huPAD4 recombinant histone 1 and so forth (x-axis).”
(§2) Ninety-six-well ELISA plates were coated with NEUTRAVIDIN® (0.1 μg/well) by overnight incubation at 4° C. Wells were washed five times with PBS-TWEEN®-20 (PBS-T) and blocked by a one-hour incubation with PBS-T+1% Bovine serum albumin (BSA) at room temperature (RT). After five more washes with PBS-T, wells were incubated for one hour at RT with histone-derived citrulline and biotin-containing peptides (0.3 μg/well). […] Wells were washed five times with PBS-T and incubated with rabbit-anti-human-HRP (1:2000) for one hour at RT followed by five washes with PBS-T and three wash steps with PBS. Wells were incubated for five minutes with TMB substrate before stopping the reaction with 2 M H₂SO₄. Optical density was measured by 450 nm and is a measure for the affinity of the antibodies used.

[21] = molecular target: T11, Histone 2A citrulline-containing peptide 1 (human, also: biotin label); test: peptide ELISA, 0.00064 ug/well
T11 construct: also called AAASGXGKQGGK
T11 peptide: AAASG[Cit]GKQGGK
Method: as §1, with “Biotin and citrulline-containing peptides derived from histone 2A were immobilized on NEUTRAVIDIN®-coated 96-well ELISA plates (0.3 μg/well). CFC-1” for “CFC-1”, “controls respectively” for “controls, respectively,”, “binding.” for “binding. H1=recombinant histone 1; H1/p2=huPAD2 recombinant histone 1; H1/p4=huPAD4 recombinant histone 1 and so forth (x-axis).”
as §2

[22] = molecular target: T12, Histone 2A citrulline-containing peptide 2 (human, also: biotin label); test: peptide ELISA, 0.00064 ug/well
T12 peptide: AKAKS[Cit]SSRAGL
Method: as §1, with “Biotin and citrulline-containing peptides derived from histone 2A were immobilized on NEUTRAVIDIN®-coated 96-well ELISA plates (0.3 μg/well). CFC-1” for “CFC-1”, “controls respectively” for “controls, respectively,”, “binding.” for “binding. H1=recombinant histone 1; H1/p2=huPAD2 recombinant histone 1; H1/p4=huPAD4 recombinant histone 1 and so forth (x-axis).”
as §2

[23] = molecular target: T13, Histone 2A citrulline-containing peptide 4 (human, also: biotin label); test: peptide ELISA, 0.00064 ug/well
T13 peptide: QFPVG[Cit]VHRLLR
Method: as §1, with “Biotin and citrulline-containing peptides derived from histone 2A were immobilized on NEUTRAVIDIN®-coated 96-well ELISA plates (0.3 μg/well). CFC-1” for “CFC-1”, “controls respectively” for “controls, respectively,”, “binding.” for “binding. H1=recombinant histone 1; H1/p2=huPAD2 recombinant histone 1; H1/p4=huPAD4 recombinant histone 1 and so forth (x-axis).”
as §2

[24] = molecular target: T14, Histone 2A citrulline-containing peptide 5 (human, also: biotin label); test: peptide ELISA, 0.00064 ug/well
T14 peptide: VGRVH[Cit]LLRKGN
Method: as §1, with “Biotin and citrulline-containing peptides derived from histone 2A were immobilized on NEUTRAVIDIN®-coated 96-well ELISA plates (0.3 μg/well). CFC-1” for “CFC-1”, “controls respectively” for “controls, respectively,”, “binding.” for “binding. H1=recombinant histone 1; H1/p2=huPAD2 recombinant histone 1; H1/p4=huPAD4 recombinant histone 1 and so forth (x-axis).”
as §2

[25] = molecular target: T15, Histone 2A citrulline-containing peptide 7 (human, also: biotin label); test: peptide ELISA, 0.00064 ug/well
T15 peptide: GNYSE[Cit]VGAGAP
Method: as §1, with “Biotin and citrulline-containing peptides derived from histone 2A were immobilized on NEUTRAVIDIN®-coated 96-well ELISA plates (0.3 μg/well). CFC-1” for “CFC-1”, “controls respectively” for “controls, respectively,”, “binding.” for “binding. H1=recombinant histone 1; H1/p2=huPAD2 recombinant histone 1; H1/p4=huPAD4 recombinant histone 1 and so forth (x-axis).”
as §2

[26] = molecular target: T16, Histone 2A citrulline-containing peptide 8 (human, also: biotin label); test: peptide ELISA, 0.00064 ug/well
T16 peptide: AGNAA[Cit]DNKKTR
Method: as §1, with “Biotin and citrulline-containing peptides derived from histone 2A were immobilized on NEUTRAVIDIN®-coated 96-well ELISA plates (0.3 μg/well). CFC-1” for “CFC-1”, “controls respectively” for “controls, respectively,”, “binding.” for “binding. H1=recombinant histone 1; H1/p2=huPAD2 recombinant histone 1; H1/p4=huPAD4 recombinant histone 1 and so forth (x-axis).”
as §2

[27] = molecular target: T17, Histone 2A citrulline-containing peptide 9 (human, also: biotin label); test: peptide ELISA, 0.00064 ug/well
T17 peptide: DNKKT[Cit]IIPRHL
Method: as §1, with “Biotin and citrulline-containing peptides derived from histone 2A were immobilized on NEUTRAVIDIN®-coated 96-well ELISA plates (0.3 μg/well). CFC-1” for “CFC-1”, “controls respectively” for “controls, respectively,”, “binding.” for “binding. H1=recombinant histone 1; H1/p2=huPAD2 recombinant histone 1; H1/p4=huPAD4 recombinant histone 1 and so forth (x-axis).”
as §2

[28] = molecular target: T18, Histone 2A citrulline-containing peptide 11 (human, also: biotin label); test: peptide ELISA, 0.00064 ug/well
T18 peptide: LQLAI[Cit]NDEELN
Method: as §1, with “Biotin and citrulline-containing peptides derived from histone 2A were immobilized on NEUTRAVIDIN®-coated 96-well ELISA plates (0.3 μg/well). CFC-1” for “CFC-1”, “controls respectively” for “controls, respectively,”, “binding.” for “binding. H1=recombinant histone 1; H1/p2=huPAD2 recombinant histone 1; H1/p4=huPAD4 recombinant histone 1 and so forth (x-axis).”
as §2

B1: RhmAb2.102 (antibody, human IgG1, lambda)
heavy: not shown
light: QSVLTQPPSMSAAPGQKVTISCSGSSSNIGNNYVSWYQQVPGTAPKLLIYDDNKRPSGIPGRFSGSKSATSATLGITGLQAGDEADYYCGSWDDNLSVVLFGGGTKLTVLGQPKAAPSVTLFPPSSEELQANKATLVCLISDFYPGAVTVAWKADSSPVKAGVETTTPSKQSNNKYAASSYLSLTPEQWKSHRSYSCQVTHEGSTVEKTVAPTECS
notes: Human IgG1 lambda; also called Rhm2.102
OD [1]: 0.054 OD
OD [2]: 0.053 OD
OD [3]: 0.057 OD
OD [4]: 0.628 OD
OD [5]: 0.426 OD
OD [6]: 0.065 OD
OD [7]: 0.052 OD
OD [8]: 0.052 OD
OD [9]: 0.155 OD
OD [10]: 0.076 OD
OD [11]: 0.061 OD
OD (CFC-1 [12]): 0.702 OD
OD [13]: 0.063 OD
OD [14]: 0.052 OD
OD [15]: 0.051 OD
OD [16]: 0.053 OD
OD [17]: 0.066 OD
OD [18]: 0.06 OD
OD [19]: 0.06 OD
OD (CFC-1 [20]): 0.621 OD
OD [21]: 0.16 OD
OD [22]: 0.055 OD
OD [23]: 0.063 OD
OD [24]: 0.067 OD
OD [25]: 0.057 OD
OD [26]: 0.057 OD
OD [27]: 0.059 OD
OD [28]: 0.06 OD
